For the data set, the target named is T1, TRα (A/B + DBD) (chicken, UniProt P04625 1-154).
T1 sequence: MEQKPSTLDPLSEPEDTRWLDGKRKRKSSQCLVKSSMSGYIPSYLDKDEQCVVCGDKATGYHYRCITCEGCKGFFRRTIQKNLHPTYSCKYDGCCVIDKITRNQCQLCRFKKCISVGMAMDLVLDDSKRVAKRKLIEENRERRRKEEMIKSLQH
Description: intrinsic Trp fluorescence quenching; room temperature, 2 uM protein, 5 mM Mg2+; average Kd, two-site fit; 50 mM HEPES pH 7.5, 125 mM NaCl, 5 mM MgCl2, 1 mM TCEP; ITC 25 C, fluorescence room temperature. The settings on record: protein: recombinant; tags: 6xHis (pET15b); chain copies: 2; blunt; 19-mer complementary strands annealed.

B1: DR4 TRE (dsDNA)
DNA 1: CCAGGTCATTTCAGGTCAG
DNA 2: CTGACCTGAAATGACCTGG
For B1, the Kd turned out to be 2.69 ± 0.22 µM.

The record behind these values is publication PMC5458466, “DNA‐induced unfolding of the thyroid hormone receptor α A/B domain through allostery”.
